tested on: Escherichia coli TOP10; experiment: shrunken log2 fold change of peptide-encoding DNA abundance (4.5 h post-induction vs induction); higher = less antimicrobial activity (less host growth inhibition); details: time post-induction: 4.5 h; library: site-saturation at positions 5, 18, 19, 20
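Also: peptides expressed intracellularly from a pBAD plasmid library in pooled LB shake-flask culture, induced with 0.3% L-arabinose, DNA abundance read by NGS, three biological replicates, DESeq2 with apeglm shrinkage.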

Compared with RRIRMRPPRLPRPRPRPRDMPRP, RRIRGRPPRLPRPRPRPACAPRP is higher in “shrunken log2 fold change” value: 0.316 for the first, 1.13 for the second.

Going from RRIRPRPPRLPRPRPRPALMPRP to RRIRNRPPRLPRPRPRPKWIPRP, the “shrunken log2 fold change” value falls from 0.31 to 0.0111.

RRIRSRPPRLPRPRPRPQFPPRP and RRIRGRPPRLPRPRPRPFKEPRP are within 0.2 log units of each other in “shrunken log2 fold change” value: -0.00708 for the first, -0.0428 for the second.

RRIRWRPPRLPRPRPRPAYPPRP and RRIRQRPPRLPRPRPRPETKPRP are within 0.2 log units of each other in “shrunken log2 fold change” value: 0.00826 for the first, 0.0652 for the second.

First: RRIRGRPPRLPRPRPRPSSDPRP
Second: RRIRGRPPRLPRPRPRPLTIPRP
The “shrunken log2 fold change” value of the first is higher: 0.439 for the first, -0.155 for the second.

Compared with RRIRFRPPRLPRPRPRPPLQPRP, RRIRCRPPRLPRPRPRPAQAPRP is lower in “shrunken log2 fold change” value: 0.353 for the first, 0.147 for the second.

RRIRYRPPRLPRPRPRPNTPPRP and RRIRYRPPRLPRPRPRPLLGPRP are within 0.2 log units of each other in “shrunken log2 fold change” value: -0.179 for the first, -0.25 for the second.

First: RRIRCRPPRLPRPRPRPIKCPRP
Second: RRIRSRPPRLPRPRPRPDEMPRP
The “shrunken log2 fold change” value of the first is lower: -0.165 for the first, 0.435 for the second.

Compared with RRIRIRPPRLPRPRPRPNSWPRP, RRIRHRPPRLPRPRPRPTEKPRP is higher in “shrunken log2 fold change” value: -0.691 for the first, 0.0288 for the second.

Going from RRIRKRPPRLPRPRPRPYVSPRP to RRIRRRPPRLPRPRPRPRFQPRP, the “shrunken log2 fold change” value rises from -0.438 to 0.555.

First: RRIRKRPPRLPRPRPRPYYLPRP
Second: RRIRDRPPRLPRPRPRPGWLPRP
The “shrunken log2 fold change” value of the first is lower: -0.278 for the first, 0.127 for the second.

RRIRQRPPRLPRPRPRPANQPRP and RRIRVRPPRLPRPRPRPDYMPRP are within 0.2 log units of each other in “shrunken log2 fold change” value: -0.091 for the first, 0.0631 for the second.

First: RRIRWRPPRLPRPRPRPKNVPRP
Second: RRIRFRPPRLPRPRPRPRVWPRP
The “shrunken log2 fold change” value of the first is lower: -0.0641 for the first, 0.963 for the second.

RRIRDRPPRLPRPRPRPQAEPRP and RRIRFRPPRLPRPRPRPQQWPRP are within 0.2 log units of each other in “shrunken log2 fold change” value: -0.129 for the first, -0.208 for the second.

First: RRIRMRPPRLPRPRPRPQGDPRP
Second: RRIRWRPPRLPRPRPRPAEKPRP
The “shrunken log2 fold change” value of the first is lower: -0.477 for the first, 0.192 for the second.

Going from RRIRVRPPRLPRPRPRPTFAPRP to RRIRERPPRLPRPRPRPTVMPRP, the “shrunken log2 fold change” value falls from 0.294 to -0.193.

First: RRIRYRPPRLPRPRPRPFTFPRP
Second: RRIRKRPPRLPRPRPRPWCIPRP
The “shrunken log2 fold change” value of the first is lower: -1.08 for the first, -0.103 for the second.

RRIRHRPPRLPRPRPRPEYNPRP and RRIRSRPPRLPRPRPRPCRNPRP are within 0.2 log units of each other in “shrunken log2 fold change” value: -0.329 for the first, -0.273 for the second.

Going from RRIRPRPPRLPRPRPRPDGIPRP to RRIRPRPPRLPRPRPRPFNTPRP, the “shrunken log2 fold change” value rises from 0.0121 to 0.39.

First: RRIRNRPPRLPRPRPRPIDGPRP
Second: RRIRQRPPRLPRPRPRPPCFPRP
The “shrunken log2 fold change” value of the first is lower: -0.00962 for the first, 0.222 for the second.

Going from RRIRCRPPRLPRPRPRPREHPRP to RRIRHRPPRLPRPRPRPRHKPRP, the “shrunken log2 fold change” value falls from 0.161 to -0.556.

RRIRLRPPRLPRPRPRPDEMPRP and RRIRLRPPRLPRPRPRPDHCPRP are within 0.2 log units of each other in “shrunken log2 fold change” value: 0.123 for the first, -0.0562 for the second.

RRIRMRPPRLPRPRPRPMSCPRP and RRIRMRPPRLPRPRPRPHSNPRP are within 0.2 log units of each other in “shrunken log2 fold change” value: 0.0466 for the first, 0.0878 for the second.

First: RRIRWRPPRLPRPRPRPGNTPRP
Second: RRIRVRPPRLPRPRPRPTTSPRP
The “shrunken log2 fold change” value of the first is lower: -0.348 for the first, 0.097 for the second.

Going from RRIRTRPPRLPRPRPRPTRPPRP to RRIRYRPPRLPRPRPRPFGLPRP, the “shrunken log2 fold change” value falls from 0.614 to -0.282.

Going from RRIRNRPPRLPRPRPRPTADPRP to RRIRVRPPRLPRPRPRPFPYPRP, the “shrunken log2 fold change” value falls from 0.422 to -0.277.

RRIRERPPRLPRPRPRPNTPPRP and RRIRMRPPRLPRPRPRPVFFPRP are within 0.2 log units of each other in “shrunken log2 fold change” value: 0.0861 for the first, 0.207 for the second.

RRIRLRPPRLPRPRPRPMSNPRP and RRIRHRPPRLPRPRPRPPCVPRP are within 0.2 log units of each other in “shrunken log2 fold change” value: -0.089 for the first, -0.108 for the second.

Going from RRIRKRPPRLPRPRPRPGRYPRP to RRIRDRPPRLPRPRPRPCGMPRP, the “shrunken log2 fold change” value falls from 0.426 to 0.0207.

Going from RRIRKRPPRLPRPRPRPNMLPRP to RRIRYRPPRLPRPRPRPLFDPRP, the “shrunken log2 fold change” value rises from -0.0107 to 0.802.

Compared with RRIRTRPPRLPRPRPRPYRRPRP, RRIRGRPPRLPRPRPRPICCPRP is higher in “shrunken log2 fold change” value: -0.0138 for the first, 0.8 for the second.

Going from RRIRFRPPRLPRPRPRPTSLPRP to RRIRRRPPRLPRPRPRPKMNPRP, the “shrunken log2 fold change” value rises from -1.17 to -0.0665.

Going from RRIRMRPPRLPRPRPRPAQRPRP to RRIRQRPPRLPRPRPRPRDNPRP, the “shrunken log2 fold change” value falls from 0.987 to -0.0667.

Compared with RRIRKRPPRLPRPRPRPEGTPRP, RRIRNRPPRLPRPRPRPELEPRP is higher in “shrunken log2 fold change” value: 0.0154 for the first, 0.47 for the second.

Going from RRIRVRPPRLPRPRPRPIAKPRP to RRIRRRPPRLPRPRPRPLFTPRP, the “shrunken log2 fold change” value rises from 0.391 to 1.61.

RRIRKRPPRLPRPRPRPCKYPRP and RRIRCRPPRLPRPRPRPMHWPRP are within 0.2 log units of each other in “shrunken log2 fold change” value: 0.0409 for the first, 0.00478 for the second.

RRIRFRPPRLPRPRPRPCSDPRP and RRIRERPPRLPRPRPRPREQPRP are within 0.2 log units of each other in “shrunken log2 fold change” value: -0.119 for the first, -0.0138 for the second.

RRIRFRPPRLPRPRPRPLQKPRP and RRIRNRPPRLPRPRPRPSCGPRP are within 0.2 log units of each other in “shrunken log2 fold change” value: -0.235 for the first, -0.178 for the second.

Going from RRIRNRPPRLPRPRPRPTTQPRP to RRIRRRPPRLPRPRPRPAKTPRP, the “shrunken log2 fold change” value rises from -0.222 to 0.408.

RRIRLRPPRLPRPRPRPPDMPRP and RRIRQRPPRLPRPRPRPYMYPRP are within 0.2 log units of each other in “shrunken log2 fold change” value: -0.111 for the first, -0.0364 for the second.

Compared with RRIRIRPPRLPRPRPRPHQFPRP, RRIRFRPPRLPRPRPRPQLPPRP is higher in “shrunken log2 fold change” value: -0.525 for the first, -0.0654 for the second.

RRIRARPPRLPRPRPRPLTHPRP and RRIRHRPPRLPRPRPRPWENPRP are within 0.2 log units of each other in “shrunken log2 fold change” value: 0.227 for the first, 0.0621 for the second.

RRIRGRPPRLPRPRPRPIHEPRP and RRIRRRPPRLPRPRPRPWLRPRP are within 0.2 log units of each other in “shrunken log2 fold change” value: -0.135 for the first, -0.103 for the second.

First: RRIRPRPPRLPRPRPRPTYIPRP
Second: RRIRCRPPRLPRPRPRPNPDPRP
The “shrunken log2 fold change” value of the first is higher: -0.0167 for the first, -0.306 for the second.

Compared with RRIRRRPPRLPRPRPRPRPLPRP, RRIRNRPPRLPRPRPRPMESPRP is lower in “shrunken log2 fold change” value: 0.559 for the first, -0.0333 for the second.

RRIRDRPPRLPRPRPRPPYTPRP and RRIRVRPPRLPRPRPRPLFPPRP are within 0.2 log units of each other in “shrunken log2 fold change” value: -0.0539 for the first, 0.0958 for the second.

RRIRSRPPRLPRPRPRPCQVPRP and RRIRYRPPRLPRPRPRPYMNPRP are within 0.2 log units of each other in “shrunken log2 fold change” value: -0.0521 for the first, 0.0271 for the second.

Compared with RRIRQRPPRLPRPRPRPMLDPRP, RRIRCRPPRLPRPRPRPPGIPRP is higher in “shrunken log2 fold change” value: -0.206 for the first, 3.39 for the second.

RRIRLRPPRLPRPRPRPSCEPRP and RRIRERPPRLPRPRPRPWAGPRP are within 0.2 log units of each other in “shrunken log2 fold change” value: -0.0674 for the first, -0.208 for the second.

Going from RRIRYRPPRLPRPRPRPVLCPRP to RRIRTRPPRLPRPRPRPYEKPRP, the “shrunken log2 fold change” value falls from -0.272 to -0.657.

Going from RRIRMRPPRLPRPRPRPLEDPRP to RRIRWRPPRLPRPRPRPNETPRP, the “shrunken log2 fold change” value falls from 2.77 to 0.0101.

RRIRSRPPRLPRPRPRPGYQPRP and RRIRTRPPRLPRPRPRPMHVPRP are within 0.2 log units of each other in “shrunken log2 fold change” value: -0.147 for the first, -0.0197 for the second.

First: RRIRKRPPRLPRPRPRPANRPRP
Second: RRIRLRPPRLPRPRPRPIVDPRP
The “shrunken log2 fold change” value of the first is higher: 0.167 for the first, -0.103 for the second.

Going from RRIRNRPPRLPRPRPRPPNTPRP to RRIRYRPPRLPRPRPRPTVPPRP, the “shrunken log2 fold change” value falls from -0.0466 to -0.382.

In the case of RRIRKRPPRLPRPRPRPEISPRP, the “shrunken log2 fold change” value is reported as -0.0587.
